This is an account of results in publication PMC10996581 (The Journal of Cell Biology, 2024).

B1: CTxA_(I124-F132) peptide, 5-FAM labelled, wild-type sequence (peptide)
peptide: IYGWYRVHF
modifications: also: 5-FAM labelled, position not given here

Read-outs that look alike come from different tables or passages of the source. Where no end group is shown, it is not given here. The star is where a group is joined. 5FAM = O=C1OC2(c3ccc(O)cc3Oc3cc(O)ccc32)c2ccc(C(=O)*)cc21

Common to all, as to assay: […]
In test [1] the target is T1, His6-IRE1αLD (human, UniProt O75460 24-443).
T1 sequence: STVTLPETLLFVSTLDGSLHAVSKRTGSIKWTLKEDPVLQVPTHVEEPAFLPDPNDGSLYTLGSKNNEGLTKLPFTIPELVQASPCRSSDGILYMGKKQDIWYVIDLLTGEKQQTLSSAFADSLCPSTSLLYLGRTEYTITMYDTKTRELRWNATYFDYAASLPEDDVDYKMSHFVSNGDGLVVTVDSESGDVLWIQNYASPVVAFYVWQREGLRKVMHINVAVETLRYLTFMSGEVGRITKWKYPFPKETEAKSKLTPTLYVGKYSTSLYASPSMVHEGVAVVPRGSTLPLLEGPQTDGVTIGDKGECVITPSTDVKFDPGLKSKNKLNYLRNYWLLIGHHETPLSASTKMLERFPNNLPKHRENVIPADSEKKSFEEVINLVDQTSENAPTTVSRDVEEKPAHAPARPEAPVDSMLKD

Test [2] has as its target B1.
For test [3], the target named is T1, His6-IRE1αLD. This is another data set of the same source.

As to B1, in test [1], the binding result was “binds”.

5FAM-YLAWYQQKP [human IgG light chain variable domain (VL) peptide, 5-FAM labelled] returned a Kd in test [1] of 219 mM.

5FAM-YWLLIGHHETPL [IRE1α_(Y358-L369) peptide, 5-FAM labelled, wild-type sequence] gave a Kd in test [1] of 0.24 mM.

As for YWLLIGHHETPL [unlabeled IRE1α_(Y358-L369) peptide, wild-type sequence], the “fold weaker affinity than either peptide alone binding to IRE1αLD” value in test [2] was not below 10 fold. Also, in test [3], the binding result is recorded as “binds”.

As a reminder, the Kd is a measure of binding affinity in units of concentration.
